Measurements from patent US9266940 (Novo Nordisk, dated 2016).
Numbered stars: 1 amine (or outer) side, 2 acyl side, 3 side chain; on linkers, the order of the positions; unused ones are H or OH. Square brackets hold non-standard residues; d marks the D form. Side chains are listed from the residue outwards. Ends that are not written are not given here. * marks the point of attachment. Dodecanoyl(12-OPh(4-COOH)) = O=C(O)c1ccc(OCCCCCCCCCCCC(=O)*)cc1; Decanoyl(10-(4-HOOC-PhO)) = O=C(O)c1ccc(OCCCCCCCCCC(=O)*)cc1; γGlu = O=C(O)[C@H](CCC(=O)[*:2])N[*:1]; C14 diacid = O=C(O)CCCCCCCCCCCCC(=O)*; AEEA = NCCOCCOCC(=O)O; Aib = CC(C)(N)C(=O)O

biological target: T1, human GLP-1 receptor (human, UniProt P43220 24-463); experiment: SPA, displacement of 125I-GLP-1(7-36)NH2 from hGLP-1R BHK membranes, low HSA (0.001%)
T1 construct: whole, on cells; Used as purified plasma membranes of the stably transfected BHK cell line, not as intact cells; also called hGLP-1
Description: (§1) A shift in the binding affinity, $IC50$, is an indication that the peptide in question binds to albumin, and thereby a prediction of a potential protracted pharmacokinetic profile of the peptide in question in animal models.
(§2) 50 ul (micro liter) HSA ("high albumin" experiment containing 2% HSA), or buffer ("low albumin" experiment containing 0.001% HSA), was added to Optiplate, and 25 ul of test compounds were added. 5-10 ug membrane protein/sample was added (50 ul) corresponding to 0.1-0.2 mg protein/ml (to be preferably optimised for each membrane preparation). SPA-particles (Wheatgerm agglutinin SPA beads, Perkin Elmer, #RPNQ0001) were added in an amount of 0.5 mg/well (50 ul). […] The plates were sealed with PlateSealer and incubated for 120 minutes at 30° C. while shaking. The plates were centrifuged (1500 rpm, 10 min) and counted in Topcounter.

Binder | IC50 [µM]
HAEGTFTSDVSSYLEEQAARK([AEEA-AEEA-γGlu-Dodecanoyl(12-OPh(4-COOH))])FIEWLVRGK([AEEA-AEEA-γGlu-Dodecanoyl(12-OPh(4-COOH))])GEG (also called 32) | 0.00018
H[Aib]EGTFTSDVSSYLEK([AEEA-AEEA-γGlu-C14 diacid])QAVRK([AEEA-AEEA-γGlu-C14 diacid])FIAWLVR | 0.00141
H[Aib]EGTFTSDVSSYLEK([AEEA-AEEA-γGlu-C14 diacid])QAVRK([AEEA-AEEA-γGlu-C14 diacid])FIAWLVRG | 0.00038
H[Aib]EGTK([AEEA-AEEA-γGlu-C14 diacid])TSDVSSYLEEQAARK([AEEA-AEEA-γGlu-C14 diacid])FIAHLVQGRG (also called 18) | 0.373
HAEGTFTSDVSSYLEEQAARK([AEEA-AEEA-γGlu-Decanoyl(10-(4-HOOC-PhO))])FIAWLVRGK([AEEA-AEEA-γGlu-Decanoyl(10-(4-HOOC-PhO))]) (ends and bridges not checked) | 0.00029
H[Aib]EGTFTSDVSSYK([AEEA-AEEA-γGlu-Decanoyl(10-(4-HOOC-PhO))])EEQAARK([AEEA-AEEA-γGlu-Decanoyl(10-(4-HOOC-PhO))])FIEWLVG | 0.00568
H[Aib]EGTFTSDVSSYLEEQAARK([AEEA-AEEA-γGlu-Decanoyl(10-(4-HOOC-PhO))])FIEWLVRGK([AEEA-AEEA-γGlu-Decanoyl(10-(4-HOOC-PhO))])GEG (also called 31) | 0.00035
HAEGTFTSDVSSYLEEQK([AEEA-AEEA-γGlu-Decanoyl(10-(4-HOOC-PhO))])ARK([AEEA-AEEA-γGlu-Decanoyl(10-(4-HOOC-PhO))])FIAHLVG (also called 25) | 0.0109
H[Aib]EGTFTSDVSSYLEK([AEEA-AEEA-γGlu-C14 diacid])QAARK([AEEA-AEEA-γGlu-C14 diacid])FIAHLVG (also called 19) | 0.00238
HAEGTFTSDVSSYLEEQAARK([AEEA-AEEA-γGlu-Decanoyl(10-(4-HOOC-PhO))])FIEWLVRGK([AEEA-AEEA-γGlu-Decanoyl(10-(4-HOOC-PhO))])GEG | 0.00039
H[Aib]EGTFTSDVSSYLEK([AEEA-AEEA-γGlu-C14 diacid])QAVRK([AEEA-AEEA-γGlu-C14 diacid])FIAHLVRGRG | 0.00012
H[Aib]EGTFTSDVSSYLEGQAVRK([AEEA-AEEA-γGlu-C14 diacid])FIAHLVQGRK([AEEA-AEEA-γGlu-C14 diacid]) (also called 15) | 0.00019

biological target: T1, human GLP-1 receptor; experiment: SPA displacement assay; IC50 at 2.0% HSA over IC50 at 0.001% HSA
Description: as §1, §2

Binder | Ratio [(IC50/nM) high HSA]/[(IC50/nM) low HSA]
HAEGTFTSDVSSYLEEQAARK([AEEA-AEEA-γGlu-Dodecanoyl(12-OPh(4-COOH))])FIEWLVRGK([AEEA-AEEA-γGlu-Dodecanoyl(12-OPh(4-COOH))])GEG (also called 32) | 2050
H[Aib]EGTFTSDVSSYLEK([AEEA-AEEA-γGlu-C14 diacid])QAVRK([AEEA-AEEA-γGlu-C14 diacid])FIAWLVR | 57
H[Aib]EGTFTSDVSSYLEK([AEEA-AEEA-γGlu-C14 diacid])QAVRK([AEEA-AEEA-γGlu-C14 diacid])FIAWLVRG | 157
H[Aib]EGTK([AEEA-AEEA-γGlu-C14 diacid])TSDVSSYLEEQAARK([AEEA-AEEA-γGlu-C14 diacid])FIAHLVQGRG (also called 18) | 2.1
HAEGTFTSDVSSYLEEQAARK([AEEA-AEEA-γGlu-Decanoyl(10-(4-HOOC-PhO))])FIAWLVRGK([AEEA-AEEA-γGlu-Decanoyl(10-(4-HOOC-PhO))]) (ends and bridges not checked) | 101
H[Aib]EGTFTSDVSSYK([AEEA-AEEA-γGlu-Decanoyl(10-(4-HOOC-PhO))])EEQAARK([AEEA-AEEA-γGlu-Decanoyl(10-(4-HOOC-PhO))])FIEWLVG | 79
H[Aib]EGTFTSDVSSYLEEQAARK([AEEA-AEEA-γGlu-Decanoyl(10-(4-HOOC-PhO))])FIEWLVRGK([AEEA-AEEA-γGlu-Decanoyl(10-(4-HOOC-PhO))])GEG (also called 31) | 629
HAEGTFTSDVSSYLEEQK([AEEA-AEEA-γGlu-Decanoyl(10-(4-HOOC-PhO))])ARK([AEEA-AEEA-γGlu-Decanoyl(10-(4-HOOC-PhO))])FIAHLVG (also called 25) | 3.5
H[Aib]EGTFTSDVSSYLEK([AEEA-AEEA-γGlu-C14 diacid])QAARK([AEEA-AEEA-γGlu-C14 diacid])FIAHLVG (also called 19) | 60
HAEGTFTSDVSSYLEEQAARK([AEEA-AEEA-γGlu-Decanoyl(10-(4-HOOC-PhO))])FIEWLVRGK([AEEA-AEEA-γGlu-Decanoyl(10-(4-HOOC-PhO))])GEG | 821
H[Aib]EGTFTSDVSSYLEK([AEEA-AEEA-γGlu-C14 diacid])QAVRK([AEEA-AEEA-γGlu-C14 diacid])FIAHLVRGRG | 174
H[Aib]EGTFTSDVSSYLEGQAVRK([AEEA-AEEA-γGlu-C14 diacid])FIAHLVQGRK([AEEA-AEEA-γGlu-C14 diacid]) (also called 15) | 155

biological target: T1, human GLP-1 receptor; experiment: cell-based or functional assay

Binder | EC50/pM (in vitro potency, cAMP formation, AlphaScreen) [pM]
HAEGTFTSDVSSYLEEQAARK([AEEA-AEEA-γGlu-Dodecanoyl(12-OPh(4-COOH))])FIEWLVRGK([AEEA-AEEA-γGlu-Dodecanoyl(12-OPh(4-COOH))])GEG (also called 32) | 76
H[Aib]EGTFTSDVSSYLEK([AEEA-AEEA-γGlu-C14 diacid])QAVRK([AEEA-AEEA-γGlu-C14 diacid])FIAWLVR | 159
H[Aib]EGTFTSDVSSYLEK([AEEA-AEEA-γGlu-C14 diacid])QAVRK([AEEA-AEEA-γGlu-C14 diacid])FIAWLVRG | 242
H[Aib]EGTK([AEEA-AEEA-γGlu-C14 diacid])TSDVSSYLEEQAARK([AEEA-AEEA-γGlu-C14 diacid])FIAHLVQGRG (also called 18) | 3020
HAEGTFTSDVSSYLEEQAARK([AEEA-AEEA-γGlu-Decanoyl(10-(4-HOOC-PhO))])FIAWLVRGK([AEEA-AEEA-γGlu-Decanoyl(10-(4-HOOC-PhO))]) (ends and bridges not checked) | 62
H[Aib]EGTFTSDVSSYK([AEEA-AEEA-γGlu-Decanoyl(10-(4-HOOC-PhO))])EEQAARK([AEEA-AEEA-γGlu-Decanoyl(10-(4-HOOC-PhO))])FIEWLVG | 468
H[Aib]EGTFTSDVSSYLEEQAARK([AEEA-AEEA-γGlu-Decanoyl(10-(4-HOOC-PhO))])FIEWLVRGK([AEEA-AEEA-γGlu-Decanoyl(10-(4-HOOC-PhO))])GEG (also called 31) | 37
HAEGTFTSDVSSYLEEQK([AEEA-AEEA-γGlu-Decanoyl(10-(4-HOOC-PhO))])ARK([AEEA-AEEA-γGlu-Decanoyl(10-(4-HOOC-PhO))])FIAHLVG (also called 25) | 380
H[Aib]EGTFTSDVSSYLEK([AEEA-AEEA-γGlu-C14 diacid])QAARK([AEEA-AEEA-γGlu-C14 diacid])FIAHLVG (also called 19) | 52
HAEGTFTSDVSSYLEEQAARK([AEEA-AEEA-γGlu-Decanoyl(10-(4-HOOC-PhO))])FIEWLVRGK([AEEA-AEEA-γGlu-Decanoyl(10-(4-HOOC-PhO))])GEG | 43
H[Aib]EGTFTSDVSSYLEK([AEEA-AEEA-γGlu-C14 diacid])QAVRK([AEEA-AEEA-γGlu-C14 diacid])FIAHLVRGRG | 9
H[Aib]EGTFTSDVSSYLEGQAVRK([AEEA-AEEA-γGlu-C14 diacid])FIAHLVQGRK([AEEA-AEEA-γGlu-C14 diacid]) (also called 15) | 5

biological target: T1, human GLP-1 receptor; experiment: SPA, displacement of 125I-GLP-1(7-36)NH2 from hGLP-1R BHK membranes, high HSA (2.0%)
Description: as §1, §2

Binder | IC50 [µM]
HAEGTFTSDVSSYLEEQAARK([AEEA-AEEA-γGlu-Dodecanoyl(12-OPh(4-COOH))])FIEWLVRGK([AEEA-AEEA-γGlu-Dodecanoyl(12-OPh(4-COOH))])GEG (also called 32) | 0.369
H[Aib]EGTFTSDVSSYLEK([AEEA-AEEA-γGlu-C14 diacid])QAVRK([AEEA-AEEA-γGlu-C14 diacid])FIAWLVR | 0.08
H[Aib]EGTFTSDVSSYLEK([AEEA-AEEA-γGlu-C14 diacid])QAVRK([AEEA-AEEA-γGlu-C14 diacid])FIAWLVRG | 0.06
H[Aib]EGTK([AEEA-AEEA-γGlu-C14 diacid])TSDVSSYLEEQAARK([AEEA-AEEA-γGlu-C14 diacid])FIAHLVQGRG (also called 18) | 0.789
HAEGTFTSDVSSYLEEQAARK([AEEA-AEEA-γGlu-Decanoyl(10-(4-HOOC-PhO))])FIAWLVRGK([AEEA-AEEA-γGlu-Decanoyl(10-(4-HOOC-PhO))]) (ends and bridges not checked) | 0.029
H[Aib]EGTFTSDVSSYK([AEEA-AEEA-γGlu-Decanoyl(10-(4-HOOC-PhO))])EEQAARK([AEEA-AEEA-γGlu-Decanoyl(10-(4-HOOC-PhO))])FIEWLVG | 0.446
H[Aib]EGTFTSDVSSYLEEQAARK([AEEA-AEEA-γGlu-Decanoyl(10-(4-HOOC-PhO))])FIEWLVRGK([AEEA-AEEA-γGlu-Decanoyl(10-(4-HOOC-PhO))])GEG (also called 31) | 0.22
HAEGTFTSDVSSYLEEQK([AEEA-AEEA-γGlu-Decanoyl(10-(4-HOOC-PhO))])ARK([AEEA-AEEA-γGlu-Decanoyl(10-(4-HOOC-PhO))])FIAHLVG (also called 25) | 0.039
H[Aib]EGTFTSDVSSYLEK([AEEA-AEEA-γGlu-C14 diacid])QAARK([AEEA-AEEA-γGlu-C14 diacid])FIAHLVG (also called 19) | 0.143
HAEGTFTSDVSSYLEEQAARK([AEEA-AEEA-γGlu-Decanoyl(10-(4-HOOC-PhO))])FIEWLVRGK([AEEA-AEEA-γGlu-Decanoyl(10-(4-HOOC-PhO))])GEG | 0.32
H[Aib]EGTFTSDVSSYLEK([AEEA-AEEA-γGlu-C14 diacid])QAVRK([AEEA-AEEA-γGlu-C14 diacid])FIAHLVRGRG | 0.021
H[Aib]EGTFTSDVSSYLEGQAVRK([AEEA-AEEA-γGlu-C14 diacid])FIAHLVQGRK([AEEA-AEEA-γGlu-C14 diacid]) (also called 15) | 0.029
